# Data as given in patent US20260218128A1.
# Legend:
# NKG2D ligands [1] = experiment: flow cytometry, human primary NK cells after 24 h 1:1 co-culture with KG-1 cells, NKG2D-Fc protein 5 µg/mL, anti-human IgG Fc-PE; histogram peak near 10^2; control NK only+PBS: 12.0
# NKG2D ligands [2] = experiment: flow cytometry, human primary NK cells after 24 h 1:1 co-culture with HL60 cells, NKG2D-Fc protein 5 µg/mL, anti-human IgG Fc-PE; histogram peak near 10^2; control NK only+PBS: 12.0
# NKG2D ligands [3] = experiment: flow cytometry, human primary NK cells after 24 h 1:1 co-culture with MV4-11 cells, NKG2D-Fc protein 5 µg/mL, anti-human IgG Fc-PE; faint histogram near 10^2; control NK only+PBS: 12.0
# NKG2D ligands [4] = experiment: flow cytometry, human primary NK cells after 24 h 1:1 co-culture with NKG2D-UCAR-T cells, NKG2D-Fc protein 5 µg/mL, anti-human IgG Fc-PE; histogram peak near 10^2; control NK only+PBS: 12.0
# NKG2D ligands [5] = experiment: flow cytometry, human primary NK cells after 24 h 1:1 co-culture with THP-1 cells, NKG2D-Fc protein 5 µg/mL, anti-human IgG Fc-PE; histogram peak near 10^2; control NK only+PBS: 12.0
# Chain of NKG2D-Fc protein (P26718 78-216 limits assumed): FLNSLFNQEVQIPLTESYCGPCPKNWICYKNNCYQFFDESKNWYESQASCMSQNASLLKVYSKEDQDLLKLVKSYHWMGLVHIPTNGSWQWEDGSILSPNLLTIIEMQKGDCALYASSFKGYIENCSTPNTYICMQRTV
substance,measurement,setting,value
NKG2D-Fc protein (from UniProt P26718) (Fc fusion),"PE fluorescence statistic, name not given",NKG2D ligands [1],99.7
same,"PE fluorescence statistic, name not given",NKG2D ligands [2],107
same,"PE fluorescence statistic, name not given",NKG2D ligands [3],124
same,"PE fluorescence statistic, name not given",NKG2D ligands [4],95
same,"PE fluorescence statistic, name not given",NKG2D ligands [5],125
